experiment: yeast display, Sf9 membrane polyspecificity reagent, FACS + sequencing; frameworks hold sequencing errors
Summary of the method: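 Nanobodies came from a synthetic yeast display library in Saccharomyces cerevisiae BJ5465, induced with galactose for 36–48 hours and stained for 1 hour at 4 °C with 10% biotinylated, detergent-solubilized Sf9 membrane reagent. Cells were enriched on streptavidin microbeads and then FACS-sorted, with low and high (top ~1%) gates set on anti-HA fluorescence for expression and streptavidin fluorescence for reagent binding. Each polyreactivity label reflects the gate a clone came from. Genes were amplified by colony PCR, sequenced by MiSeq 2 × 250 and filtered by CDR length.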

Sequence	polyreactivity (PSR sort gate)
QVQLVESGGGLVQAGGSLRLSCAASGRTFPRYAMGWYRQAPGKEMELVAAISVRAGITYYADSVKGRFTISRDNAKNTVYLQMNSLKPEDTAVYYCAKDHWTTSYDEGDYWGQGTQVTVSS	low polyreactivity
QVQLVESGGGLVQAGGSLRLSCAASGRTFPRYGMGWYRQAPGKERELVATIRTGGRTNYADSVKGRFTISRDNAKNTVYLQMNSLKPEDTAVYYCATDSSKHPYSPTLLKFDYWGQGTQVTVSS	low polyreactivity
QVQLVESGGGLVQAGGSLRLSCAASGRTFPRYVMGWYRPAPGKERELVASITSSGGSTYYADSVKGRLTISRDNAKNTVYLQMNSLKPEDTAVYYCAAYARPNSGPYAYRLDYWGQGTQVTVSS	high polyreactivity
QVQLVESGGGLVQAGGSLRLSCAASGRTFPRYVMGWYRQAPGKERELVAAITSSGGSTYYADSVKGRFTISRDNAKNTVYLQMNSLKPEDTAVYYCAAYARPYSGPYAYRLDYWGQGTQVTVSS	high polyreactivity
QVQLVESGGGLVQAGGSLRLSCAASGRTFPSNVMGRYIQAHGKERELVAGITWRGGSTYYADSVKGRFTISRDNAKYTVYLQINSLKPEDTAVYYCAVRTQYRRYEYWGHGTQVTVSS	high polyreactivity
QVQLVESGGGLVQAGGSLRLSCAASGRTFPSYAMGWYRQAPGKERELVAAITRGGSTNYADSVKGRFTISRDNAKNTVYLQMNSLKPEDTAVYYCAAARWRWQLARDDYWGEGTQVTVSS	high polyreactivity
QVQLVESGGGLVQAGGSLRLSCAASGRTFPSYAMGWYRQAPGKERELVAGIRWGAGRTYYADSVKGRFTISRDNAKNTVYLQMNSLKPEVTAVYYCAADPWSGSDYWGQGTQVTVSS	low polyreactivity
QVQLVESGGGLVQAGGSLRLSCAASGRTFPSYAMGWYRQAPGKERELVAVIRGGGSTKYADSVKGRFTISRDNAKNTVYLQMNSLKPEDTAVYYCATRGYPKFNYIYYYWGQGTQVTVSS	high polyreactivity
QVQLVESGGGLVQAGGSLRLSCAASGRTFPSYTMGWYRQAPGKERELVAPNDGGGDTYYADSVKGRFTISRDNAKNSVYLQMKSLKPEDTAVYYCRDWYPSYWYYYYAEYDYWGQGTQVTVSS	high polyreactivity
QVQLVESGGGLVQAGGSLRLSCAASGRTFPVNAMGWYRQAPAKQSELVATISWSGGSTYYADSVKGRFTISRDNAKNTVYLQMNSLKPEDTAVYYCAALGRHYRYDYWGQGTQVTVSS	low polyreactivity
QVQLVESGGGLVQAGGSLRLSCAASGRTFPVYAMGWYRQAPGKERELVAAIRGRSVRTYYADSVNGRFTISRDNAKNTVYLQMNSLKPEDTAVYYCAAYYFNPGMDYWGQGTQVTVSS	high polyreactivity
QVQLVESGGGLVQAGGSLRLSCAASGRTFPVYAMGWYRQAPGQERELVAAINTSGTSTYYADSVKGRFTISRDNAKNTVYLQMNSLKPEDTAVYYCATRYRYTYYWGQGTQVTVSS	high polyreactivity
QVQLVESGGGLVQAGGSLRLSCAASGRTFPWYAMGWYRQAPGKERELVAAISWTGGSTYYADSVKGRFTISRDNAKNTVYLQMNSLKPEDTAVYYCAASPWYLKYEYWGQGTQVTVSS	low polyreactivity
QVQLVESGGGLVQAGGSLRLSCAASGRTFPYNAMGWYRQATGKERELVATINTSGASTSYADSVKRRFTISRDNEKNTVYLQMNSLKPEVTAVYYCNRDRRYYHRFDYWGQGTQVTVSS	low polyreactivity
QVQLVESGGGLVQAGGSLRLSCAASGRTFPYYAMGLYRQAPGKERELVATITRGGSTYYADSVKGRFTISRDNAKNTVYLQMNSLKPEDTAVYYCAVDAYYEMDYWGQGTQLTVSS	low polyreactivity
QVQLVESGGGLVQAGGSLRLSCAASGRTFPYYAMGWYRQAPGKERELVAAISSSGGGTYYADSVKGRFTISRDNAKNTVYLQMNSLKPEDTAVYYCNAVSYYQDSFYYWGQGTQVTVSS	high polyreactivity
QVQLVESGGGLVQAGGSLRLSCAASGRTFPYYAMGWYRQAPGKERELVAAISSSGGSTYYADSVKGRFTISRDNAKNTVYLQMNSLKPEDTAVYYCAATRGWLHSFARDDHDYWGQGTQVTVSS	high polyreactivity
QVQLVESGGGLVQAGGSLRLSCAASGRTFPYYAMGWYRQAPGKERELVAAITGSGGRTYYADSVKGRFTISRDNAKNTVYLQMNRLKPEDTAVYYCATDRGYYTWRYGRNDYWGQGTLVTVSS	high polyreactivity
QVQLVESGGGLVQAGGSLRLSCAASGRTFPYYAMGWYRQATGKERELVAAIRSSGDRTYYADSVKGRFTISRDNAKNTVYLQMNSLKPEDTAVYYCNKVFLRSRRYYWGQGTQVTVSS	high polyreactivity
QVQLVESGGGLVQAGGSLRLSCAASGRTFPYYVMGWNRQAPRKERELVATISSSGRTYYADSVKGRFTISRDNAKNTVYLQMNSLNPEDTSVYYCAARFRWNQNYHFYYWGQGTQVTVSS	high polyreactivity
QVQLVESGGGLVQAGGSLRLSCAASGRTFQANAMGWYRQAPGTERELVAAITGRGGTTYYADSVKGRFTISRDTAKNTVYVQMYSLKPEDTAVYYCALALSGYGFWGYDYWGLGTQVTVSS	low polyreactivity

Sequence	polyreactivity (PSR sort gate)
QVQLVESGGGLVQAGGSLRLSCAASGRTFQEYAMGWYRQAPGKERELVADISDGGSTNYADSVKGRFTISRDNAKNTVYLQMNSLKPEDTAVYYCAADQYHGVGINFRSDYDYWGQGTQVTVSS	low polyreactivity
QVQLVESGGGLVQAGGSLRLSCAASGRTFQFYAMGWYRPAPGKERELVAAITYSGDSTYYADSVKGRFTISRDNAKNTVYLQMNSLKPEDTAVYYCAAGVWFYWYEYDYWGQGTQVTVSS	high polyreactivity
QVQLVESGGGLVQAGGSLRLSCAASGRTFQINAMGWYRQAPGKERELVAAITWSGGSTYYADSVKRRFTISPDNAKNPVYLQMNSLKPADTALYYCNTRYRAYATLNLIAGYNSWGQGTQVTVSS	low polyreactivity
QVQLVESGGGLVQAGGSLRLSCAASGRTFQLNAMGCYRQAPGKERELVAAISTRGGSTYYADSVKGRFTISRDNAKNTVYLQMNSLKPEDTAVYYCAKDPSFTRGYKDGGGYDYWGQGTQVTVSS	high polyreactivity
QVQLVESGGGLVQAGGSLRLSCAASGRTFQLNAMGWYRQAPGKEREFVATISTGGGGTFYADSVKGRFTISRDNAKNTVYLQMNSLKPEDTAVYYCNAGGETYIFRDLRHDYWGQGTQVTVSS	low polyreactivity
QVQLVESGGGLVQAGGSLRLSCAASGRTFQLYAMGWYRQAPGKERELVAAITSGGNTYYADSVKGRFTISRDNAKNTVYLQMNSLKPVDTAVYYCFLYYSRSMGYWGQGTQVTVSS	high polyreactivity
QVQLVESGGGLVQAGGSLRLSCAASGRTFQQNAMGWYRQAPGKERELVATIRNGGNTNYADSVKGRFTISRDNAKNTVYLQLNSLKPEDTAVYYSAARVYTHGLWGYNYWGQGTQVTVSS	high polyreactivity
QVQLVESGGGLVQAGGSLRLSCAASGRTFQSNAMGWYRQAPGNERELVAAISRRGGSTYYADSVKGRFTISRDNEKNTVYLQMNCLKPEDTAVYYCNRDAKAGDWGQGTQVTVSS	high polyreactivity
QVQLVESGGGLVQAGGSLRLSCAASGRTFQSYAMGWYRQAPGKERELVASITSGASTNYADSVKGRFTISRDNAKNTVYLQMNSLKPEDTAVYYCARRIGHGSRPYWLETWRYPYDYWGQGTQVTVSS	low polyreactivity
QVQLVESGGGLVQAGGSLRLSCAASGRTFQTYAMGWYRQAPGKERELVAAISSDGSTYYADSVKGRFTISRDNAKNTVYLQMNSLKPEDTAVYYCNTDIGDKYYYHVRVDYEYWGQGTQVTLSS	low polyreactivity
QVQLVESGGGLVQAGGSLRLSCAASGRTFQWNGMGWYRQAPGKERELVDTIRRGGSTNYADSVKGRFTISRDNAKNTVDLQMNSLKPEDTAVYYCAADRRYPGGWGFEYNYWGQGTQVTVSS	low polyreactivity
QVQLVESGGGLVQAGGSLRLSCAASGRTFQYYAMGWNRQAPGKERELVAAISQDGGSTYYADSVKGRFTISRDNAKHSVYLQMNSLKPEDTAVYYCDAEVWRSYGYWGQGTQVTVSS	low polyreactivity
QVQLVESGGGLVQAGGSLRLSCAASGRTFQYYAMGWYRPAPGKERELVAALSSRGGSTYYADSVKGRFTISRDNAKNTVSLQMNSLKPEDTAVYYCAAYVLPRQRVRSDYWGQGTQVTVTS	high polyreactivity
QVQLVESGGGLVQAGGSLRLSCAASGRTFQYYVMGWYRQAPGKERELVAAITSAGSTNYADSVKGRFTISRDNAKNTVYLQMNSLKPEDTAVYYCNADLWVNLHNDDDYWGQGTQVTVSS	low polyreactivity
QVQLVESGGGLVQAGGSLRLSCAASGRTFRANAMGWSRQAPGKERELVAAITWDGGSTYYADSVKGRFTISRDNAKNTVYLQMNSLKPEDTAVYYCNTYPYLWGQGTQVTVSS	low polyreactivity
QVQLVESGGGLVQAGGSLRLSCAASGRTFRANDMGWYRQAPGKERELVAAISQSGGSTYYADSVKGRFTISRDNAKNTVYFQMNSLKPEDTAVYDCNALGRISNHTLYDYWGQGTQVTVSS	low polyreactivity
QVQLVESGGGLVQAGGSLRLSCAASGRTFRANVMGWYRQAPGKERELVAAISKSGGRTYYADSVKGRFTISRDNAKNTVYLQMNSLKPEDTAVYYCAADIPSYRGYGYDYWGQGTQVTVSS	high polyreactivity
QVQLVESGGGLVQAGGSLRLSCAASGRTFRAYALGWYRQAPGKERELVARISWSGGNTYNADSVKGRFTISRDHAKNTVYLQMNSLKPEDTAVYYCAKTYYPYPAQIYTGYSWGQGTQVTVSS	low polyreactivity
QVQLVESGGGLVQAGGSLRLSCAASGRTFRAYAMGGYRQAPGKERELVAAITSGGSTYYADSVKGRFTISRDNAKNTVYLQMNSLKPEDTAVYYCNRRGWSRTHQYDYWGQGTQVTESS	high polyreactivity
QVQLVESGGGLVQAGGSLRLSCAASGRTFRAYAMGWYRQAPGKEMELVAGITSGGSTNYADSVKGRFTISRDNAKNTVYLQMNSLKPEDTAVYYCAARRGTYRYRYDYWGQGTQVTVSS	high polyreactivity
